# Laboratory results: paper PMC5511352, “Structural insights into the mycobacteria transcription initiation complex from analysis of X-ray crystal structures”
# T1: RNAP alpha subunit C-terminal domain (alphaCTD, symmetry-related) (Mycobacterium smegmatis (mc2155), UniProt A0QSL8 251-350)
# T1 sequence: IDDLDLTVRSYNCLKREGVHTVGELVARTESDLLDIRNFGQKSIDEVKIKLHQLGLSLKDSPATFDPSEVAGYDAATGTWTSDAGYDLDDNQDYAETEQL
# B1: us-fork promoter fragment (mixed)
# DNA 1: GCTTGACAAAAGTGTTAAATTGTGCTATACT
# DNA 2: AGCACAATTTAACACTTTTGTCAAGC
# Biological target: T1, RNAP alpha subunit C-terminal domain …
# Assay: X-ray crystallography (2.76 A); alphaCTD of symmetry-related complex; A/T-rich region -29 to -24; Crystallization: 0.1 M Bis-Tris pH 6.0, 0.2 M Li2SO4 (printed LiSO4), 16% PEG 3350, 2.5% ethylene glycol, 22 C; protein in 20 mM Tris-HCl pH 8, 100 mM K-glutamate, 10 mM MgCl2, 1 mM DTT
# Settings: protein: native; upstream fork (ds/ss junction)
binder,measurement,value
B1,binding result,binds
